Columns and labels:
TrkB = target: T1, TrkB (Homo sapiens, UniProt Q16620); experiment: Co-immunoprecipitation of Ha Karet with TrkB in Hek cells; type: binding; details: co-transfected Hek cells
T1 construct: expressed in transfected cells; host or cells: Hek cells
Protocol: (§1) FIGS. 24a-d depict co IP of Ha Karet with TrkA, TrkB, TrkC, p75 from co-transfected Hek cells. Cells were co-transfected with Ha Karet or control vector and TrkA, TrkB, TrkC or p75. Cells were lysed with NP40, the HA-beads (beads conjugated to anti-HA antibody) were blocked with Hek lysate, and elution was done for 30 minutes at 37° C. Proteins from anti-HA-IP (FIGS. 24a and b) or from cell lysates without IP (FIGS. 24c and d) were subjected to Western blot analysis and the membranes were probed with anti pan trk (FIGS. 24a and c) or anti-p75 (FIGS. 24b and d) antibodies. Note the specific co-IP of Karet with TrkA (FIG. 24a, lane 1), Karet with TrkB (FIG. 24a, lane 3), Karet with TrkC (FIG. 24a, lane 5) and the lack of IP between karet and p75 (FIG. 24b, lane 7).

TrkC = target: T2, TrkC (Homo sapiens, UniProt Q16288); experiment: Co-immunoprecipitation of Ha Karet with TrkC in Hek cells; type: binding; details: co-transfected Hek cells
T2 construct: expressed in transfected cells; host or cells: Hek cells
Protocol: as §1

TrkA = target: T3, TrkA; experiment: Tyr phosphorylation of TrkA in PC12 6.24 cells; type: cell-based, human; details: PC12-6.24 cells expressing Karet, anti-phospho-Tyr blot
T3 construct: expressed in transfected cells; host or cells: PC12 6.24 cells (rat PC12 stably overexpressing human TrkA; Hempstead et al., 1992)
T3 sequence (P04629 33-796): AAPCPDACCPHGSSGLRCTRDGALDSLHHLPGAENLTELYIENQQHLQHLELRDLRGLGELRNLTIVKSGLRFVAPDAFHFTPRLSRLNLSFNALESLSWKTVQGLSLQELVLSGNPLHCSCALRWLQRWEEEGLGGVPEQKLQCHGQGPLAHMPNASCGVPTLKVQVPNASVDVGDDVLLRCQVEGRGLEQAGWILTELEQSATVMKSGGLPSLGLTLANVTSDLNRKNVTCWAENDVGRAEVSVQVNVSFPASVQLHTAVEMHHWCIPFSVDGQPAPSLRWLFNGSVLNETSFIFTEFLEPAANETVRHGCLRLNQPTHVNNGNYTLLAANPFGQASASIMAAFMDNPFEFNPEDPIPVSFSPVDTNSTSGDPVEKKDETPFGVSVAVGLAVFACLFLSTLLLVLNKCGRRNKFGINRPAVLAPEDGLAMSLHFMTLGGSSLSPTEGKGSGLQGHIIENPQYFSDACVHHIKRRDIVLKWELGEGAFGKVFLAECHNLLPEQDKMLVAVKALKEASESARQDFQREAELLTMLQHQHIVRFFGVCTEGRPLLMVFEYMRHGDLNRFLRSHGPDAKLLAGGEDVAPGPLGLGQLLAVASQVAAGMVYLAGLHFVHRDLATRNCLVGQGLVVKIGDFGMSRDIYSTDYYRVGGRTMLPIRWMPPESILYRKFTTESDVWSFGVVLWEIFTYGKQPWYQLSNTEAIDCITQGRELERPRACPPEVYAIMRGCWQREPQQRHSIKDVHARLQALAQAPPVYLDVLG

necdin = target: T4, necdin (Homo sapiens, UniProt Q99608); experiment: Co-immunoprecipitation of Karet with necdin; type: binding; details: necdin-PC12 cells, during 50 ng/ml NGF treatment
T4 construct: expressed in transfected cells
T4 sequence (Q99608 1-321): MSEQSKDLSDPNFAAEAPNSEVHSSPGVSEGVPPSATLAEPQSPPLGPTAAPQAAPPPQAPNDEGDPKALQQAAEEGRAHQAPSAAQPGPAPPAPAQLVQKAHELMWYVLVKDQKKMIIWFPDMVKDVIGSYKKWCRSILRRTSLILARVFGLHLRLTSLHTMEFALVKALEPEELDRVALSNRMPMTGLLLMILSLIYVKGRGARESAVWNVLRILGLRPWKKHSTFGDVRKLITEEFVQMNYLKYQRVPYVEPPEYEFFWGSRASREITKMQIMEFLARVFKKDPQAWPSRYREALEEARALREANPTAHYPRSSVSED
Protocol: Karet tagged with the HA epitope was immunoprecipitated with anti-HA antibody, the precipitated proteins were separated electrophoretically, and gel blots were incubated with anti-necdin. In control experiments the HA-Karet was substituted with vector.
FIGS. 4a-c are co-immunoprecipitation assay results depicting the influence of NGF treatment on TrkA-Karet interaction. FIG. 4a depicts that TrkA-Karet interaction occurred prior to NGF treatment and was enhanced after ligand stimulation for 10 minutes (10 m) or 2 hours (2 h). HA-Karet was electroporated into cell line PC12, and the cells were treated with 50 ng/ml NGF for the indicated time periods in order to activate p75 and TrkA. Karet tagged with the HA epitope was immunoprecipitated with anti-HA antibody, the precipitated proteins were separated electrophoretically, and gel blots were incubated with anti-TrkA antibody (RTA). FIG. 4b depicts that necdin seems to compete with TrkA for binding to Karet. myc-Karet was electroporated into necdin stable cell line, and the cells were treated with 50 ng/ml NGF for the indicated time periods. Karet tagged with the myc epitope was immunoprecipitated with anti-myc antibody, the precipitated proteins were separated electrophoretically, and gel blots were incubated with anti-TrkA antibody (RTA). […] A blot from the same experiment was stripped and re-incubated with anti-necdin antibody. […]

COS cells = experiment: Viability of COS cells expressing Karet; type: cell-based

Substance: Karet: full-length mouse Karet protein (SEQ ID NO:1), PTB domain protein, expressed from pcDNA3 with HA tag
- co-immunoprecipitation with TrkB (TrkB): co-immunoprecipitated
- co-immunoprecipitation with TrkC (TrkC): co-immunoprecipitated
- phosphorylation of TrkA (TrkA): significantly enhanced the phosphorylation of the receptor
- interaction with necdin (necdin): robust and constant
- cell viability (COS cells): no reduction in cell viability

Reference: US20090036380A1, “Composition And Method For Brain Tumor Therapy” (Yeda Research and Development Co., Ltd., priority 2006, published 2009)
